# Assay results taken from PMC10879843.
# Biological target: metabotropic glutamate receptor 5 (mouse (endogenous in brain cortex)) (UniProt Q3UVX5)
# Test: co-IP; mGluR5 immunoprecipitated with rabbit anti-mGluR5 on protein G magnetic beads from brain cortex lysates of 1 month-old WT and SPKO (synaptopodin knockout) mice; 20 mM Tris-HCl pH 7.4, 5 mM EDTA, 100 mM NaCl, 1% Triton X-100; overnight at 4 °C; immunoblot with anti-pan-Homer
# Sequence of UniProt Q3UVX5 (Q3UVX5 19-1203): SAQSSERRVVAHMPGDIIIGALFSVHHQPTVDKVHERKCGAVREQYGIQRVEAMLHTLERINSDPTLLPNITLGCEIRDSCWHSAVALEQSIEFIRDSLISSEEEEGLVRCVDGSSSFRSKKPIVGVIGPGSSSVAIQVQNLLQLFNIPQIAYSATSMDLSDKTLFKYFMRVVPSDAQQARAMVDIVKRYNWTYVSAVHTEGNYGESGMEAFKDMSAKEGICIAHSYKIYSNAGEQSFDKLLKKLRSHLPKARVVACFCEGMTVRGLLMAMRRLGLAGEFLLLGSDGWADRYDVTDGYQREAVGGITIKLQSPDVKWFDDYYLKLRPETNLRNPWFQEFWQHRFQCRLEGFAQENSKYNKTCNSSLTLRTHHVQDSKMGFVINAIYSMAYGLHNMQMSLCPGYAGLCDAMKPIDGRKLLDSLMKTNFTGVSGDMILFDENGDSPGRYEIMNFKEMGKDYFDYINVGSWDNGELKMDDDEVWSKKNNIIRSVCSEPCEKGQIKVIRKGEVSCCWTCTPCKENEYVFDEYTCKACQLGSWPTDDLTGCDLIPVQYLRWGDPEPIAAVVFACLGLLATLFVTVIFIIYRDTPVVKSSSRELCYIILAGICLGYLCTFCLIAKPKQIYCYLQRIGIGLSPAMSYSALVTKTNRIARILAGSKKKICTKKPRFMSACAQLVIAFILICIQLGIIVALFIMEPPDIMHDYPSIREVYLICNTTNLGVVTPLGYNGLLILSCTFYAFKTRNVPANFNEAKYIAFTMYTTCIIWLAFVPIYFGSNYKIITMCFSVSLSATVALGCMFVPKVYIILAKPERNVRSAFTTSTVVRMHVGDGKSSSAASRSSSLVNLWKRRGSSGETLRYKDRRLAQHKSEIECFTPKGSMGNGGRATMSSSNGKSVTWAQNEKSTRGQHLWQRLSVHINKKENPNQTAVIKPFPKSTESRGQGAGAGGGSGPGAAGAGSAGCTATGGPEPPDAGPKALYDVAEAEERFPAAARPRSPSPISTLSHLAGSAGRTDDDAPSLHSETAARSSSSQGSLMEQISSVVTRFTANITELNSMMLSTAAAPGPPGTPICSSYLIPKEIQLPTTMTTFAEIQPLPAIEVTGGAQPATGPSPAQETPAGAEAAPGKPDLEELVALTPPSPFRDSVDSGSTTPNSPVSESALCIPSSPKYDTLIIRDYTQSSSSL
substance,measurement,value
Homer (long form) (from UniProt Q9Z2Y3 1-366) (natural protein),"coprecipitated Homer, SPKO/WT ratio",0.4
